Data: patent US20250066499A1 (SUNSHINE GUOJIAN PHARMACEUTICAL SHANGHAI, published 2025)
Positions count from the first letter of the chain named. In names and notes the source's numbering stands.

T1: CD73 protein on the surface of tumor cells (human, UniProt P21589 27-549)
T1 sequence (looked up): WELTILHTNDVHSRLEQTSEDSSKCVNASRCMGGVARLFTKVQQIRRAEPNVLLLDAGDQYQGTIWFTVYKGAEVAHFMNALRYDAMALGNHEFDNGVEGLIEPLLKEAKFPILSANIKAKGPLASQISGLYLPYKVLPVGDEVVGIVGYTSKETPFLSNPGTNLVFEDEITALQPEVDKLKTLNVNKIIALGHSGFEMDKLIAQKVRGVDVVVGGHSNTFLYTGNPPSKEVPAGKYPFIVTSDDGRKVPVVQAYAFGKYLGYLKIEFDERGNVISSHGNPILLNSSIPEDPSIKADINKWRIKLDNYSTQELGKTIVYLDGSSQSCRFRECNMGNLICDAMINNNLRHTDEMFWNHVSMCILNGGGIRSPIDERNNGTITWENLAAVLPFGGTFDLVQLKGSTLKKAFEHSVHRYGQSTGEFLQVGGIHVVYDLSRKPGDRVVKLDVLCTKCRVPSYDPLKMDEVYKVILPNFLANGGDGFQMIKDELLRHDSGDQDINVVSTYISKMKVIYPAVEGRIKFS

T2: human CD73-His protein (human, UniProt P21589 27-549)
T2 construct: Expressed in HEK-293F with a signal peptide that is not specified; In the ELISAs it was biotinylated with EZ-Link NHS-Biotin (CD73-biotin) and captured on streptavidin; in SPR and the enzyme assay it was used as CD73-His; also called CD73-his antigen; CD73-biotin
T2 sequence: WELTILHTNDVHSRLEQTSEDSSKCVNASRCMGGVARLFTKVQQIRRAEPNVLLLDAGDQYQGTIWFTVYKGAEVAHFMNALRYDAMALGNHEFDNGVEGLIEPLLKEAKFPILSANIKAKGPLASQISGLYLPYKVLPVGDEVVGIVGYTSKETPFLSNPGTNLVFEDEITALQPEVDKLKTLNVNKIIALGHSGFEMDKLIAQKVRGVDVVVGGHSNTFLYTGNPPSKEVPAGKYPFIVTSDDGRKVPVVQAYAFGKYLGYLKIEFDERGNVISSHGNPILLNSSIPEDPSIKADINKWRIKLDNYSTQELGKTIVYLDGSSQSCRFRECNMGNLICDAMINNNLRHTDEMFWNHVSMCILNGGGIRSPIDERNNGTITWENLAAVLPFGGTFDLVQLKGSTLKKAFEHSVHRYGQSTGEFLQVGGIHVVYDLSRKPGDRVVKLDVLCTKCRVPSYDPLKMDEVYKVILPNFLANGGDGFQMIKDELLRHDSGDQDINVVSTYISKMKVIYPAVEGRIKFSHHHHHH

B1: 48A11 (antibody, V domains shown)
VH: QVQLQQPGAELVKPGASVKLSCKASGYTFTSYWMHWVKQRPGQGLEWIGEINPSIGRTNYNEKFKSKATLTVDKSSSTAFMQLSSLTSEDSAVYYCARRVYGTMDYWGQGTSVTVSS
VL: DIKMTQSPSSMYASLGERVTITCKASQDINSYLSWFQQKPGKSPKTLIYRANIWVDGVPSRFSGSGSGQDYSLTISSLEYEDMGIYYCLQYDELYTFGGGTKLEIK
notes: Murine hybridoma antibody; also called murine-derived antibody 48A11
B2: 56B10 (antibody, V domains shown)
VH: QVQLQQSGPELVKPGASVRISCKTSGYTFTRYYIYWVKQRPGQGLEWIGWIYPGNFNTKYNEKFKGKATLTADTSSSTAYMQLSSLTSEDSAVYFCARDVYDYAGFAYWGQGTLVTVSA
VL: DIVMTQSHRFLSTSVGDRVSITCKASQGVATAVAWYQQKPGQSPKLLIYWASTRHTGVPDRFTGSGSGTDFTLTISNVQSEDLADYFCQQYSSYPWTFGGGTKLEIK
notes: Murine hybridoma antibody; also called murine-derived antibody 56B10
B3: 48A11-ch (antibody, human IgG4 S228P, kappa, V domains shown)
VH: B1 VH
VL: DIKMTQSPSSMYASLGERVTITCKASQDINSYLSWFQQKPGKSPKTLIYRANIWVDGVPSRFSGSGSGQDYSLTISSLEYEDMGIYYCLQYDELYTFGGGTKLEIKR
notes: Chimeric: murine variable regions spliced with human IgG4 (S228P) and human kappa constant regions; also called chimeric antibody 48A11-ch
B4: 56B10-ch (antibody, human IgG4 S228P, kappa, V domains shown)
VH: B2 VH
VL: DIVMTQSHRFLSTSVGDRVSITCKASQGVATAVAWYQQKPGQSPKLLIYWASTRHTGVPDRFTGSGSGTDFTLTISNVQSEDLADYFCQQYSSYPWTFGGGTKLEIKR
notes: Chimeric: murine variable regions spliced with human IgG4 (S228P) and human kappa constant regions; also called chimeric antibody 56B10-ch
B5: 56B10-HuV21 (antibody, human IgG4, V domains shown)
VH: QVQLVQSGAEVKKPGASVKVSCKTSGYTFTRYYIYWVRQAPGQGLEWIGWIYPGNFNTKYNEKFKGRATLTADTSASTAYMELSSLRSEDTAVYYCARDVYDYAGFAYWGQGTLVTVSS
VL: DIQLTQSPSFLSASVGDRVTITCKASQGVATAVAWYQQKPGQSPKLLIYWASTRHTGVPDRFSGSGSGTEFTLTISSLQPEDFATYYCQQYSSYPWTFGQGTKVEIK
notes: Humanized
B6: 56B10-HuV32 (antibody, human IgG4, V domains shown)
VH: B5 VH with V5Q, T24A, A40R, R87T
VL: B5 VL with Q42K, S43A, D60S
notes: Humanized
B7: 56B10-HuV23 (antibody, human IgG4, V domains shown)
VH: B5 VH
VL: B5 VL with L4M, Q42K, D60S, Y87F
notes: Humanized
B8: 56B10-HuV33 (antibody, human IgG4, V domains shown)
VH: B5 VH with V5Q, T24A, A40R, R87T
VL: B5 VL with L4M, Q42K, D60S, Y87F
notes: Humanized
B9: 48A11-HuV23 (antibody, human IgG4, V domains shown)
VH: QVQLVQSGAEVKKPGASVKVSCKASGYTFTSYWMHWVRQAPGQGLEWIGEINPSIGRTNYNEKFKSRATLTVDKSTSTAYMELSSLRSEDTAVYYCARRVYGTMDYWGQGTLVTVSS
VL: DIQMTQSPSSLSASVGDRVTITCKASQDINSYLSWFQQKPGKSPKLLIYRANIWVDGVPSRFSGSGSGQDYTFTISSLQPEDIATYYCLQYDELYTFGQGTKVEIK
notes: Humanized
B10: 48A11-HuV22 (antibody, human IgG4, V domains shown)
VH: B9 VH
VL: B9 VL with L46T
notes: Humanized

These binders were tested against T1, CD73 protein on the surface of tumor … (assay: cell-based or functional assay).
B1 was tested, and the “IC50 (ng/mL), inhibition of CD73 enzyme activity on H1975 cells (AMP/ATP, Cell Titer-Glo)” value was 17 ng/mL. With B2 the “IC50 (ng/mL), inhibition of CD73 enzyme activity on H1975 cells (AMP/ATP, Cell Titer-Glo)” value was 20.7 ng/mL.

What follows are binders tested against T2, human CD73-His protein (assay: ELISA, biotinylated CD73-His on streptavidin plate).
Method: (§1) The ELISA plates were coated with SA protein diluted to 1.5 μg/mL in coating buffer (50 mM carbonate coating buffer, pH 9.6) and incubated overnight at 4° C. The supernatant was discarded, and the plates were washed three times with PBST. Then, 5% skimmed milk powder prepared with PBS was added for blocking and the plates were incubated for 2 h at 37° C. After washing the plates once with PBST, CD73-biotin protein (prepared by biotinylating CD73-His protein according to the EZ-Link NHS-Biotin Reagent instructions) was diluted to 0.5 μg/mL and added at 100 μL/well for incubation at room temperature for 1 h. The plates were washed three times with PBST, and the prepared murine-derived monoclonal antibodies against human CD73 were serially diluted with 1% BSA buffer prepared with PBST and added to the ELISA plates at 100 μl/well. The plates were incubated at 37° C. for 1 h. After washing the plates three times with PBST, HRP-labeled goat anti-mouse IgG secondary antibody was added and the plates were incubated for 30 min at 37° C. After washing the plates three times with PBST, the residual droplets were patted dry on absorbent paper as much as possible. Then, 100 μl of TMB color developing solution was added to each well, and the plates were incubated in the dark at room temperature for 5 min for color development. Subsequently, 50 μl of 2M H₂SO₄ stop solution was added to each well to terminate the substrate reaction. The OD values were read at 450 nm using a multimode microplate reader to analyze the binding ability of the tested antibodies to the target antigen human CD73-His.
An EC50 of 0.0197 µg/mL was found for B1 in this work. An EC50 of 0.067 nM was found for B3 in this work. An EC50 of 0.0269 µg/mL was found for B2 in this work. An EC50 of 0.09 nM was found for B4 in this work.

Target: T2, human CD73-His protein
Assay: ELISA, biotinylated CD73-His on streptavidin plate
Remark: another data set of the same source
Method: as §1
The binding affinity of various humanized antibodies to human CD73-his protein was measured with reference to Example 3.
An EC50 of 0.11 nM was found for B5 in this work. An EC50 of 0.105 nM was found for B6 in this work. An EC50 of 0.107 nM was found for B7 in this work. An EC50 of 0.112 nM was found for B8 in this work. An EC50 of 0.058 nM was found for B3 in this work. An EC50 of 0.07 nM was found for B4 in this work. An EC50 of 0.081 nM was found for B9 in this work. An EC50 of 0.093 nM was found for B10 in this work.

These binders were tested against T2, human CD73-His protein (assay: cell-based or functional assay).
With B8 the “IC50 (nM), inhibition of enzyme activity of soluble CD73-His (AMP/ATP, Cell Titer-Glo)” value was 4.13 nM. With B10 the “IC50 (nM), inhibition of enzyme activity of soluble CD73-His (AMP/ATP, Cell Titer-Glo)” value was 9.02 nM.
